Kd data for twelve sequences are collected here from publication PMC8745424.

Data set [1] has as its target SARS-CoV-2 S-protein RBD (expressed in P. pastoris) (SARS-CoV-2 (Wuhan-type)) (UniProt P0DTC2). Briefly: BLI. The settings on record: BLI (BLItz, streptavidin sensors, immobilized aptamer 200 nM; RBD 50-200 nM): PBS, 0.55 mM MgCl2, 0.1 mg/mL BSA, 0.002% Tween-20, room temperature ….
Data set [2] addresses SARS-CoV-2 S-protein RBD (expressed in CHO cells) (SARS-CoV-2 (Wuhan-type)) (UniProt P0DTC2). Briefly: BLI. The settings on record: BLI (BLItz, streptavidin sensors, […]; RBD 50-200 nM): PBS, 0.55 mM MgCl2, 0.1 mg/mL BSA, 0.002% Tween-20, room temperature; binding-buffer pH not stated.

Usually Kd stands for the constant that tells how readily two partners part at equilibrium.

With “TTTTTTTTTTATCCAGAGTGACGCAGCACTGCGTAGGCGCGGCCAATGTGTAGGATTGCTCAGGTCTGCTGGACACGGTGGCTTAGT [Biotin-CoV2-RBD-3]”, the Kd in data set [1] came to 1.4 nM; in data set [2] it was 40 nM. In turn, “TTTTTTTTTTATCCAGAGTGACGCAGCAGGACTGCTTAGGATTGCGAAGCTGAGGAGCTCCCCCGCCTTGGACACGGTGGCTTAGT [Biotin-CoV2-RBD-5]” registered a Kd in data set [2] of 22 nM. Take “TTTTTTTTTTATCCAGAGTGACGCAGCATTTCATCGGGTCCAAAAGGGGCTGCTCGGGATTGCGGATATGGACACGT [Biotin-CoV2-RBD-4]”: the results for the Kd in data set [1] and in data set [2] were 14 nM and 18 nM, respectively.

Turning to “ATCCAGAGTGACGCAGCAGGACTGCTTAGGATTGCGAAGCTGAGGAGCTCCCCCGCCTTGGACACGGTGGCTTAGTTTTTTTTTTT [CoV2-RBD-5-Biotin]”, the dissociation constant Kd turned out to be 1.2 nM in data set [1] and 26 nM in data set [2]. The matching figures for “ATCCAGAGTGACGCAGCAGTAGGGGGATTGGCTCCAGGGCCTGGCTGACGGTTGCACGTGGACACGGTGGCTTAGTTTTTTTTTTT [CoV2-RBD-6-Biotin]”: 1 nM and 10 nM.

On to “ATCCAGAGTGACGCAGCATTTCATCGGGTCCAAAAGGGGCTGCTCGGGATTGCGGATATGGACACGTTTTTTTTTTT [CoV2-RBD-4-Biotin]”, for which the Kd in data set [1] stood at 5.5 nM; in data set [2], 21 nM. Consider “ATCCAGAGTGACGCAGCATCGAGTGGTGGGCTGGTCGGGTTTGGATTCCCTTAGATGCTGGACACGGTGGCTTAGTTTTTTTTTTT [CoV2-RBD-2-Biotin]”, for which the values for the Kd in data set [1] and in data set [2] were 10 nM and 4.3 nM, respectively.

Regarding “TTTTTTTTTTCAGCACCGACCTTGTGCTTTGGGAGTGCTGGTCCAAGGGCGTTAATGGACA [Biotin-CoV2-RBD-1C]”, the dissociation constant Kd in data set [1] is 0.8 nM; in data set [2], 5.8 nM. The matching figures for “ATCCAGAGTGACGCAGCACTGCGTAGGCGCGGCCAATGTGTAGGATTGCTCAGGTCTGCTGGACACGGTGGCTTAGTTTTTTTTTTT [CoV2-RBD-3-Biotin]”: 2 nM and 24 nM.

In data set [2], “TTTTTTTTTTATCCAGAGTGACGCAGCATCGAGTGGTGGGCTGGTCGGGTTTGGATTCCCTTAGATGCTGGACACGGTGGCTTAGT [Biotin-CoV2-RBD-2]” came in with a Kd of 17 nM. As to “TTTTTTTTTTATCCAGAGTGACGCAGCAGTAGGGGGATTGGCTCCAGGGCCTGGCTGACGGTTGCACGTGGACACGGTGGCTTAGT [Biotin-CoV2-RBD-6]”, the results for the Kd in data set [1] and in data set [2] were 3.5 nM and 29 nM, respectively. For the sequence “CAGCACCGACCTTGTGCTTTGGGAGTGCTGGTCCAAGGGCGTTAATGGACATTTTTTTTTT [CoV2-RBD-1C-Biotin]”, the Kd in data set [1] came out at 1.5 nM; in data set [2], 27 nM.
